Earlier results in publication PMC10499909.

Biological target: lactoferrin (species not stated, cited Kd) (UniProt P02788)
Conditions: PBS pH 6.8, 37 °C, 30 min in dark; CDs-aptamer 0.05 mg/mL with graphene oxide nanosheets

lactoferrin (species not stated, cited Kd), sequence (P02788 20-710): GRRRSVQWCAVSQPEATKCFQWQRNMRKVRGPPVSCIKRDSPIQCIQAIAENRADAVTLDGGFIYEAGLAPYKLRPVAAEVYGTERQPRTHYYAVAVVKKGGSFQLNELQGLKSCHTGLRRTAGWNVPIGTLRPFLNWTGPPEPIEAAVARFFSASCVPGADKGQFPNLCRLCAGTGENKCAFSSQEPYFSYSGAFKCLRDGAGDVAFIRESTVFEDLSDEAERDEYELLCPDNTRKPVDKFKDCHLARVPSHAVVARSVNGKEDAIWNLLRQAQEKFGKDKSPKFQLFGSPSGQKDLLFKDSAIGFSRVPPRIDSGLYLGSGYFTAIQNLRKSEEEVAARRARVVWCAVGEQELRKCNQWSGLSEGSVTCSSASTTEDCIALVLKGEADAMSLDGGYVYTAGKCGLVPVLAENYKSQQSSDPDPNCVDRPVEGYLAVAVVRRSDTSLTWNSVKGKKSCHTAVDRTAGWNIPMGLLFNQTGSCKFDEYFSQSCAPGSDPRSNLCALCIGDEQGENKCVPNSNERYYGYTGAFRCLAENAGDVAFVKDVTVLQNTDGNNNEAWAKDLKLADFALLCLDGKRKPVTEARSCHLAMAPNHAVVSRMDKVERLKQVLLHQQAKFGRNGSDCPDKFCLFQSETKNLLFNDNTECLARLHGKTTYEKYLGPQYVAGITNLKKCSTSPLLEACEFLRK

Sequence: AGGCAGGACACCGTAACCGGTGCATCTATGGCTACTAGCTCTTCCTGCCT [LF aptamer]
- Kd: 4.97 nM
